Results published in US20040086863A1 (published 2004).

Key:
[1] = molecular target: T1, HA-tagged PH domain of mSos1 (residues 448-577) (mouse, UniProt Q62245 448-577); experiment: GST pull-down from yeast lysates, anti-HA western blot
T1 construct: range 448-577; Expressed in L40 yeast; The species is read from the printed prefix in 'mSos1'; also called SOS1 PH domain; not shown: HA tag
T1 sequence (looked up): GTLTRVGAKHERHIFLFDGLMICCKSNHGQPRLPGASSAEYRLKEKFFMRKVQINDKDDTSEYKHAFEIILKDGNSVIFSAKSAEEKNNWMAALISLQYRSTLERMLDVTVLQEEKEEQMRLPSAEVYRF

[2] = molecular target: T2, HA-tagged PH domain of mouse Ect-2 (residues 495-621) (mouse, UniProt Q07139 670-796); experiment: as above
T2 construct: range 670-796; Expressed in L40 yeast; also called ECT-2 PH domain; not shown: HA tag
T2 sequence (looked up): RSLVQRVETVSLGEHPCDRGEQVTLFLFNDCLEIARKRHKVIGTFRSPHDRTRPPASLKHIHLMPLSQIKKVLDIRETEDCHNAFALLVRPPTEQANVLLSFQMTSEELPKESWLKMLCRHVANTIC

[3] = molecular target: T3, HA-tagged PH domain of human RasGAP (residues 464-603) (human, UniProt P20936 464-603); experiment: as above
T3 construct: range 464-603; Expressed in L40 yeast; also called Ras-GAP (GAP) PH domain; not shown: HA tag
T3 sequence (looked up): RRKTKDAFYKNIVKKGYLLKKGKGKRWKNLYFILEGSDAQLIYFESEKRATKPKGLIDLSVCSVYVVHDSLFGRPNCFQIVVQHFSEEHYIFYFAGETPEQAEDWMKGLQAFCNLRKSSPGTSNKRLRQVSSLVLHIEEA

[4] = molecular target: T4, HA-tagged IRS-1 PH domain mutant PH^W106A (rat, UniProt P35570 3-133); experiment: GST pull-down from COS-1 lysates (500 µg), anti-HA western blot
T4 construct: range 3-133; Expressed transiently in COS-1 cells; The residue limits are not restated for this mutant; not shown: HA tag
T4 sequence (looked up): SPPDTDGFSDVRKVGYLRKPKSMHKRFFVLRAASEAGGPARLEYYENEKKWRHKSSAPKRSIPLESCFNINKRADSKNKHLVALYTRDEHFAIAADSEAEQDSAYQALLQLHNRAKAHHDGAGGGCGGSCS

binding result [1]: no binding
binding result [2]: no binding
binding result [3]: no binding
binding result [4]: no binding
B1: GST-PHIP fusion protein containing PHIP residues 8-209 (PBR) isolated from the yeast clone VP1.32 (other)
chain: VGELTENGLTLEEWLPSAWITDTLPRRCPFVPQMGDEVYYFRQGHEAYVEMARKNKIYSINPKKQPWHKMELREQELMKIVGIKYEVGLPTLCCLKLAFLDPDTGKLTGGSFTMKYHDMPDVIDFLVLRQQFDDAKYRRWNIGDRFRSVIDDAWWFGTIESQEPLQPEYPDSLFQCYNVCWDNGDTEKMSPWDMELIPNNAV
notes: Bacterially expressed and immobilized for pull-downs; also called GST-PHIP (PBR); not shown: glutathione S-transferase encoded by the pGEX-3X vector
